# Reference: patent publication US20240150494A1 (ROCKEFELLER UNIVERSITY, published 2024)
# B1: B7 (VHH)
# VHH: QVQLQESGGGLVQAGGSLRLSCAASGGISRYKTMGWYRQAPGKEREFVAGITWGGSTYYADSVKGRFTISRDNAKNTVYLQMNSLKPEDTAVYYCSVDGGTYADPYHYYWGQGTQVTVSS
# notes: also called clone B7; nanobody B7; not shown: His tag and AviTag of the pET26-b(+) construct
# Experiments:
# [1] = biological target: T1, IgG1, G0 afucosylated glycoform (antibody not named); test: sandwich ELISA, IgG titrated
# T1 construct: also called GO
# [2] = biological target: T2, anti-NP (4-hydroxy-3-nitrophenylacetyl) antibody clone 3B62 IgG1, afucosylated; test: SPR, 1:1 Langmuir global kinetic fit, 256 to 16 nM in 2-fold steps
# T2 construct: In the FcγRIIIA ELISA it stood as an immune complex with NP-BSA (10:1); also called 3B62 IgG1 G2; monomeric 3B62
binder,measurement,setting,value
B1,EC50 (read off the curve),[1],~0.4 µg/mL
same,Kd,[2],3.76 µM
